We go through two substances from publication PMC7979805.

The target of the experiment is endogenous actin of neonatal rat cardiomyocytes (rat (endogenous in neonatal rat cardiomyocytes)) (UniProt P68035). The experiment is described as follows: co-sedimentation; G-actin/F-actin fractionation of lysates of neonatal rat cardiomyocytes transduced with mCherry or mCherry-Tpm1.1 (G-Actin/F-actin In Vivo Assay Biochem Kit); ultracentrifugation 100,000 x g, 37 °C, 1 h; supernatant and pellet immunoblotted.

Substance “endogenous CAP2 of neonatal rat cardiomyocytes (from UniProt P52481 1-477) (natural protein)” displayed a percent of CAP2 in the F-actin fraction (cells expressing mCherry) of 28.6% and a percent of CAP2 in the F-actin fraction (cells expressing mCherry-Tpm1.1) of 25%.
In the case of “endogenous Tmod1 of neonatal rat cardiomyocytes (from UniProt P70567 1-359) (natural protein)”, the percent of Tmod1 in the F-actin fraction (cells expressing mCherry) worked out at 42.7% and the percent of Tmod1 in the F-actin fraction (cells expressing mCherry-Tpm1.1) is 65.6%.
